Assay results: publication PMC5954120

Target: GST-Pmp23 (S. pneumoniae) (UniProt Q8DPY9)
Assay: MST; 100 nM GST-Pmp23 labeled with NT-647, titrated with PBP2x (7 nM to 235 μM) or BSA (5 nM to 360 μM); 25 °C; 50 mM Tris-HCl, 150 mM NaCl, 10 mM MgCl2, 0.05% Tween-20; triplicates

Sequence of UniProt Q8DPY9 (Q8DPY9 whole entry): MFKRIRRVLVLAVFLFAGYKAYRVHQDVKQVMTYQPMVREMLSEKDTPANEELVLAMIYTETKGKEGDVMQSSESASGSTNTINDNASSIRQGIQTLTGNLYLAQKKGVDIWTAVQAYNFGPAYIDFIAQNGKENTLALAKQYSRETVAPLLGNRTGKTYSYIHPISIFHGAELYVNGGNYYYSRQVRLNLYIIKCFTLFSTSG

Kd: 9 µM
Substance: extracellular domain of PBP2x (domain or fragment)
